{"source": "the nanobody polyreactivity screen of Harvey et al. (2022)"}
{"test": "yeast display, Sf9 membrane polyspecificity reagent, FACS + sequencing; frameworks hold sequencing errors", "outline": "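Nanobodies came from a synthetic yeast display library in Saccharomyces cerevisiae BJ5465, induced with galactose for 36–48 hours and stained for 1 hour at 4 °C with 10% biotinylated, detergent-solubilized Sf9 membrane reagent. Cells were enriched on streptavidin microbeads and then FACS-sorted, with low and high (top ~1%) gates set on anti-HA fluorescence for expression and streptavidin fluorescence for reagent binding. Each polyreactivity label reflects the gate a clone came from. Genes were amplified by colony PCR, sequenced by MiSeq 2 × 250 and filtered by CDR length.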"}
{"sequence": "QVQLVESGGGLVQAGGSLRLSCAASGRIFSFNTMGWYRQAPGKEREFVATIRYSGGSTYADSVKGRFTISRDNAKNTVYLQMNSLKPEDTAVYYCAAAWWSYKFNRDFDYWGQGTQVTVSS", "polyreactivity (PSR sort gate)": "low polyreactivity"}
{"sequence": "QVQLVESGGGLVQAGGSLRLSCAASGRIFSGNAMGWYRQAPRKERELVAAISRGGSTDYADSVKGRFTISRDNAKNTVYLQMNSLKPEDTAVYYCSARVNGKRRRYDYWGQGTQVTVSS", "polyreactivity (PSR sort gate)": "high polyreactivity"}
{"sequence": "QVQLVESGGGLVQAGGSLRLSCAASGRIFSINALGWYRQAPGKEREFVATISDRGSTTSYADSVKGRFTISRDNAKNTVYLQMNSLKPEDTAVYYCAARSYYRYDYWGQGTQVTVSS", "polyreactivity (PSR sort gate)": "high polyreactivity"}
{"sequence": "QVQLVESGGGLVQAGGSLRLSCAASGRIFSIYAMGWYRQAPGKERDMVAASSFRGTSTYADSVKGRFTISRDNAKNTVYLQMNWLKPEDTAVYYCAVTGFDVLWPSLGGELDYWGQGTQVTVSS", "polyreactivity (PSR sort gate)": "low polyreactivity"}
{"sequence": "QVQLVESGGGLVQAGGSLRLSCAASGRIFSIYAMGWYRQAPGKERELVAAISKRGGSTSYADSVKGRFTISRDNAKNTVYLQMNSLKPEDTAVYYCNARGWIPARGWDDYYWGQGTQVTVSS", "polyreactivity (PSR sort gate)": "high polyreactivity"}
{"sequence": "QVQLVESGGGLVQAGGSLRLSCAASGRIFSKYAMGLYRQAPEKERELVAAISGTGGSTYYADSVKGRFTISRDNSKNTVYLHMNSLKTEDTAVYYCAAEWYGRMYYWGQGTQVTVSS", "polyreactivity (PSR sort gate)": "high polyreactivity"}
{"sequence": "QVQLVESGGGLVQAGGSLRLSCAASGRIFSLNAMGWYRQAPGKERELVAAISKRGGSTYYADSVKGRFTISRDNAKNTVYLQMNSLKPEDTAVYYCNKLGSLSGRYDYWGQGTQVTVSS", "polyreactivity (PSR sort gate)": "high polyreactivity"}
{"sequence": "QVQLVESGGGLVQAGGSLRLSCAASGRIFSLYAMGWYRQAPGKEREFVAAISKSSGGTYYADSVKGRFTISRDNAKNTVYLQMNSLKPKDTAVYYCNARFVIGWVRKLDYWGQGTQVTVSS", "polyreactivity (PSR sort gate)": "high polyreactivity"}
{"sequence": "QVQLVESGGGLVQAGGSLRLSCAASGRIFSLYAMGWYRQAPGKERELVAAISKRGGSTYYADSVKGRFTISRDNAKNTVYLQMNSLKPEDTAVYYCATQLPFRKPWHDYWGQGTQVTVSS", "polyreactivity (PSR sort gate)": "high polyreactivity"}
{"sequence": "QVQLVESGGGLVQAGGSLRLSCAASGRIFSLYAMGWYRQAPGKERELVAAISSSGGRTYYADSVKGRFTISRDNAKNTVYLQMNSLKPEDTAVYYCADLVFSWWTFEYWGQGTQVTVSS", "polyreactivity (PSR sort gate)": "high polyreactivity"}
{"sequence": "QVQLVESGGGLVQAGGSLRLSCAASGRIFSNNAMGWYRQAPGKERELVAAISSSGSTYYADSVKGRFTISRDNAKNTVYLQMNSLKPEDTAVYYCAVVYGYPYLRGYVYGFNYWGQGTQVTVSS", "polyreactivity (PSR sort gate)": "low polyreactivity"}
{"sequence": "QVQLVESGGGLVQAGGSLRLSCAASGRIFSNNVMGWYIQAPGKERELVATISTDGRTNYADSVKGRFTISRDNAQNTVYLQMNSLKPEDTAVYFCAATGVTILLSSKSDYWGQGTQVTVSS", "polyreactivity (PSR sort gate)": "low polyreactivity"}
{"sequence": "QVQLVESGGGLVQAGGSLRLSCAASGRIFSPYAMGWYRQAPGKERELVAAITRNGGRTYYADSVKGRFTISRDNAKNTVYLQMNSLKPEDTAVYYCAAAKQSGNDYWGQGTQVTVSS", "polyreactivity (PSR sort gate)": "low polyreactivity"}
{"sequence": "QVQLVESGGGLVQAGGSLRLSCAASGRIFSRNAMGWYRQAPGKERELVAAITYSGGSTYYADSVKGRFTISRDNAKNTVYLQMNSLKPEDTAVYYCNADLYLQLPESYEYDYWGQGTQVTVSS", "polyreactivity (PSR sort gate)": "high polyreactivity"}
{"sequence": "QVQLVESGGGLVQAGGSLRLSCAASGRIFSRNAMGWYRQAPGKERELVAGISARGGRTYYADSVKGRFTISRDNAKNTVYLQMNSLKPEDTAVYYCNARTGYQDGTYGNDYWGQGTQVTVSS", "polyreactivity (PSR sort gate)": "high polyreactivity"}
{"sequence": "QVQLVESGGGLVQAGGSLRLSCAASGRIFSRNTMGWYRQAPGKEREFVAAISQSGGRTYYADSVKGRFTISRDNAKNTVYLQMNSLKPEDTAVYYCAAPSQSRGYYYWGQGTQVTVSS", "polyreactivity (PSR sort gate)": "high polyreactivity"}
{"sequence": "QVQLVESGGGLVQAGGSLRLSCAASGRIFSRYAMGWYRQAHGKERELVAAISWSGGSTYYADSVKGRFTISRDNAKNTVYLQMNSLKPEDTAVYYCAARRSYSYGSWGQGTQVTVSS", "polyreactivity (PSR sort gate)": "high polyreactivity"}
{"sequence": "QVQLVESGGGLVQAGGSLRLSCAASGRIFSRYAMGWYRQAPGKERELVAAINKSGGSTYYADSVKGRFTISRDNAKNTVYLQMNSLKPEDTAVYYCNAVYYWYKGDYWGQGSQVTVSS", "polyreactivity (PSR sort gate)": "high polyreactivity"}
{"sequence": "QVQLVESGGGLVQAGGSLRLSCAASGRIFSRYAMGWYRQAPGKERELVAAISRNGGSTYYADSVKGRFTISRDNAKNTVYLQMNSLKPEDTAVYYCNARGNQAVNGYEYWGQGTQVTVSS", "polyreactivity (PSR sort gate)": "high polyreactivity"}
{"sequence": "QVQLVESGGGLVQAGGSLRLSCAASGRIFSRYAMGWYRQAPGKERELVAAISWSGGSTYYADSVKGRFTISRDKAKNTVYLQMNSLKPEDTAVYYCAAKRQYTEYNYWGQGTQVTVSS", "polyreactivity (PSR sort gate)": "high polyreactivity"}
{"sequence": "QVQLVESGGGLVQAGGSLRLSCAASGRIFSRYAMGWYRQAPGKERELVAIISSGDSTNYADSVKGRFTISRDNAKNTVYLQMNSLKPEDTAVYYCAAANWGTPPYDDWGQGTQVTVSS", "polyreactivity (PSR sort gate)": "low polyreactivity"}
{"sequence": "QVQLVESGGGLVQAGGSLRLSCAASGRIFSSNVMGWYRQAPGKERELVAAITVTGGSTYYAYSVKGRFTISRDNAKYTVYLLMNSLNPEDTAVYFCAARVKGRFPYDYWGQGSQVTVSS", "polyreactivity (PSR sort gate)": "low polyreactivity"}
{"sequence": "QVQLVESGGGLVQAGGSLRLSCAASGRIFSSYAMGWYRQAPGKEREFVASITWRGGSTYYADSVKGRFTISRDNAKNTVYLQMNSLKPEDTAVYYCAADFYWKTYGYRTHEYDYWGQGTQVTVSS", "polyreactivity (PSR sort gate)": "high polyreactivity"}
{"sequence": "QVQLVESGGGLVQAGGSLRLSCAASGRIFSSYAMGWYRQAPGKERELVADITGRYGSTYYADSVKGRFTISRDNAKNTVYLQMNSLKPEDTAVYYCAASRFYFPRTFGGYPKLASYAYWGQVTQVTVSS", "polyreactivity (PSR sort gate)": "low polyreactivity"}
{"sequence": "QVQLVESGGGLVQAGGSLRLSCAASGRIFSSYAMGWYRQEPGKERELVAAISRSGARTYYADSVKGRFTISRDNAKNTVYLQMNSLKPEDTAVYYCAAVTVAGYDYWGQGTQVTVSS", "polyreactivity (PSR sort gate)": "high polyreactivity"}
{"sequence": "QVQLVESGGGLVQAGGSLRLSCAASGRIFSTYALGWYRQAPGKERELVAAISYSGASTYYADSVKGRFTISRDNAKNTVYLQIKSMKPEDTAVYYCAKATYPHEYDYWGQGTQVTVSS", "polyreactivity (PSR sort gate)": "low polyreactivity"}
{"sequence": "QVQLVESGGGLVQAGGSLRLSCAASGRIFSTYAMGWYRQAPGKERELVAAISWRGGNTYYADSVKGRFTISRDNAKNTVYLQMNSLKPEDTAVFYCAAASFAYPYRNSALDYWGQGTQVTVSS", "polyreactivity (PSR sort gate)": "high polyreactivity"}
{"sequence": "QVQLVESGGGLVQAGGSLRLSCAASGRIFSTYAMGWYRQAPGKERELVAAISYSGTTTYYADSVKGRFTISRDNAKNTVYLQMNSLKPEDTAVYYCAAYRYSTWSYGRDYYWGQGTQVTVSS", "polyreactivity (PSR sort gate)": "high polyreactivity"}
{"sequence": "QVQLVESGGGLVQAGGSLRLSCAASGRIFSTYTMGWYRQAPGKERELVASISWSGVRTRYADSVKGRFTISRDNAQNTVYLQMNSLKPEDTAVYYCAAVVPYYYRSPSNHMGYWGQGTQVTVSS", "polyreactivity (PSR sort gate)": "high polyreactivity"}
{"sequence": "QVQLVESGGGLVQAGGSLRLSCAASGRIFSTYVMGWYRQAPGKERELVAAIRNRGGSTYYADSVKGRFTISRDNAKNTVYLQMNSLKPEDTAVYYCAAEYSYRYRVSMDYWGQGTQVTVSS", "polyreactivity (PSR sort gate)": "high polyreactivity"}
{"sequence": "QVQLVESGGGLVQAGGSLRLSCAASGRIFSVNAMGWYRQAPGKERELVASISWSGGSTYYADSVKGRFTISRDNAKNTVYLQMNSLKPEDTAVYYCNARIESYWLDFDYWGQGTQVTVSS", "polyreactivity (PSR sort gate)": "low polyreactivity"}
{"sequence": "QVQLVESGGGLVQAGGSLRLSCAASGRIFSVNAMVWYRPAPGKERELVAAITGSGTITYYADSVKGRFTISRDNAKNTVYLQMSSLKPEDTAVYYCAARPVLRYYAGYYYWGQGTQVTVSS", "polyreactivity (PSR sort gate)": "high polyreactivity"}
{"sequence": "QVQLVESGGGLVQAGGSLRLSCAASGRIFSVYTMGWYRQAPGKEREFVASITGSAGSTYYADSVKGRFTISRDNAKNTVYLQMNSLKPEDTAVYYCAKRITAWYTYYGYWGQGTQVTVSS", "polyreactivity (PSR sort gate)": "low polyreactivity"}
{"sequence": "QVQLVESGGGLVQAGGSLRLSCAASGRIFSVYTMGWYRQAPGKERELVATISSGGRTNYADSVKGRFTISRDNAKNTVYLQMNSLKPEDTAVYYCAAVPYGFVGYDDYWGQGTQVTVSS", "polyreactivity (PSR sort gate)": "low polyreactivity"}
{"sequence": "QVQLVESGGGLVQAGGSLRLSCAASGRIFSVYTMRWYRQAPGKERELVATISSGGRTNYADSVKGRFTISRDNAKNTVYLQMNSLKPEDTAVYYCAADWVYPPGLKDSVHFGEYDYWGQGTQVTVSS", "polyreactivity (PSR sort gate)": "low polyreactivity"}
{"sequence": "QVQLVESGGGLVQAGGSLRLSCAASGRIFSWNAMGWYRQAPGKERELVAAITIGGGTYYADSVKGRFTISRDNAKNTVYLQMNSLKPEDTAVYYCNAYRRKLWYPTGMYWGQGTQVTVSS", "polyreactivity (PSR sort gate)": "high polyreactivity"}
{"sequence": "QVQLVESGGGLVQAGGSLRLSCAASGRIFSWNAMGWYRQAPGKERELVARITWNGGRTYYADSVKGRFTISRDNAKNTVYLQMNSLKPEDTAVYYCNAERFDLTYNYWGQGTQVTVSS", "polyreactivity (PSR sort gate)": "high polyreactivity"}
{"sequence": "QVQLVESGGGLVQAGGSLRLSCAASGRIFSWNTMGWYRQAPGKERELVAAITQSGSTYYADSVKGRFTISRDNAKNTVYLQMNSLKPEDTAVYYCAAVVGRRLYPRYDYWGQGTQVTVSS", "polyreactivity (PSR sort gate)": "high polyreactivity"}
{"sequence": "QVQLVESGGGLVQAGGSLRLSCAASGRIFSYKAMGWYRQAPGKERELVAAISFSTTSTYYADSVKGRFTISRDNAKNTVYLQMYSLKPEDTAVYYCNTPGLPIDSEYDYWGQGTQVTVSS", "polyreactivity (PSR sort gate)": "low polyreactivity"}
{"sequence": "QVQLVESGGGLVQAGGSLRLSCAASGRIFSYNAMGWYRQAPGKERELDAAISWSTGSTFYADSVKGRFTISRDNAKNTVYLQMNSLKPEDTAVYYCAREYYYRRGFFLRGYWGQGTQVTVSS", "polyreactivity (PSR sort gate)": "high polyreactivity"}
{"sequence": "QVQLVESGGGLVQAGGSLRLSCAASGRIFSYNAMGWYRQAPGKERELVAAISSDGSTYYADSVKGRFTISRDNAKNTVYLQMNRLKPEDTAVYYCAAYPRVNGNIHSTGDYWGQGTQVTVSS", "polyreactivity (PSR sort gate)": "low polyreactivity"}
{"sequence": "QVQLVESGGGLVQAGGSLRLSCAASGRIFSYNTMGWYRQAPGKERELVAAISGGGTTYYADSVKGRFTISRDNAKNTVYLQMNSLKPEDTAVYYCNAEYYGYSWRRTKYGYWGQGTQVTVSS", "polyreactivity (PSR sort gate)": "high polyreactivity"}
{"sequence": "QVQLVESGGGLVQAGGSLRLSCAASGRIFSYYAMGWYRHAPWKERELVAAISRSGAKTYYADSVKGRFTISRDNAKNSVYLQMNSLKPEDTAVYYCNADTLRRRYNYWGQGTQVTVSS", "polyreactivity (PSR sort gate)": "high polyreactivity"}
